{"source": "paper PMC12624773", "about": "“Receptor activity–modifying protein 3 enhances GLP-1-mediated insulin secretion” (The Journal of Biological Chemistry, 2025)", "key": {"CLR–RAMP1": {"test_system": "CLR–RAMP1", "details": "ref [43]; cited from earlier work", "from_the_text": "As RAMP3 expression varies between tissues, it is possible that by directly targeting this complex, tissue-specific receptor activation could be facilitated. […] Agonists that have reduced affinity for the RAMP3 complex over the receptor alone ..."}, "INS-1 832/3 cells [1]": {"test_system": "INS-1 832/3 cells", "experiment": "Glucose-stimulated insulin secretion in INS-1 832/3 cells, GLP-1R agonists", "type": "cell-based, rat", "details": "10 nM GLP-1; for effect of inhibitor on GLP-1-mediated insulin secretion: vector- and RAMP3-transfected, 30 min pretreatment, normalized to 10 nM GLP-1 + 0.1% DMSO"}, "Nluc–GLP-1R [2]": {"target": "T1, Nluc–GLP-1R (Homo sapiens, UniProt P43220)", "T1 sequence (P43220 24-463)": "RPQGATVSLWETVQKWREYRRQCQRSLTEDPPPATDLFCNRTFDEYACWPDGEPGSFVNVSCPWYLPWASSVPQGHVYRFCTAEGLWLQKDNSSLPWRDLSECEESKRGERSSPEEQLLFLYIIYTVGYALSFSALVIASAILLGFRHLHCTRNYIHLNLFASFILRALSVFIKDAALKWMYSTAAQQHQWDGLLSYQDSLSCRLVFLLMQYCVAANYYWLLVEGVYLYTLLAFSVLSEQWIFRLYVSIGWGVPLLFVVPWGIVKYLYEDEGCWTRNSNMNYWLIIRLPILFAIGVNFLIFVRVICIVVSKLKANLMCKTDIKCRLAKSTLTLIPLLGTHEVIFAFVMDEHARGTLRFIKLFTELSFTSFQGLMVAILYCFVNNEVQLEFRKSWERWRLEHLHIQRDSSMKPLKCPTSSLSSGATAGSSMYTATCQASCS", "type": "cell-based", "parameters": "signal peptide of murine serotonin 5-HT3R (sig) (N); expressed in transfected cells; host or cells: HEK293T", "details": "HEK293T, absence of RAMP3"}, "Nluc–GLP-1R [3]": {"target": "T1, Nluc–GLP-1R", "type": "cell-based", "parameters": "signal peptide of murine serotonin 5-HT3R (sig) (N); expressed in transfected cells; host or cells: HEK293T", "details": "HEK293T; over the concentration range tested"}, "[4]": {"details": "ref [3]; cited from earlier work", "from_the_text": "The incretin effect, whereby oral glucose elevates plasma insulin levels to a greater degree than intravenous administration, was first observed in 1964 ([1]). This is mediated by incretin hormones, the best known of which are GLP-1 and the glucose-dependent insulinotropic polypeptide (GIP). […] However, newer m ..."}, "Nluc–GLP-1R [5]": {"target": "T1, Nluc–GLP-1R"}, "GCGR with RAMP2": {"test_system": "GCGR with RAMP2", "details": "GCGR coexpressed with RAMP2; ref [13]; cited from earlier work"}, "GIPR": {"test_system": "GIPR", "details": "Min6 B1, 8-min stimulation, n = 4"}, "Min6 B1 cells": {"test_system": "Min6 B1 cells", "experiment": "Insulin secretion in siRNA-treated Min6 B1 cells", "details": "10 nM and 1 nM agonist, n = 4"}, "INS-1 832/3 cells [6]": {"test_system": "INS-1 832/3 cells", "details": "10 nM GIP, […] glucose"}, "GLP-1R–Nluc (human)": {"target": "GLP-1R–Nluc (human) (UniProt P43220)", "sequence (P43220 24-463)": "as above"}}, "note": "Entries after “also recorded” stand apart in the source; their conditions may differ. Numbered stars: 1 amine (or outer) side, 2 acyl side, 3 side chain; on linkers, the order of the positions; unused ones are H or OH. Bridge positions count the residues as written; N and C are the ends. Square brackets hold non-standard residues; d marks the D form. Peptide text beside a SMILES is read from it. X1 = CC(=O)NC(C(=O)OC(C(C)C)C(N[*:1])C(=O)[*:2])C(O)C(C)C; PhLac = O=C(O)[CH](O)Cc1ccccc1; NMeT = CN[CH](C(=O)O)[CH](C)O; NMeA = CN[CH](C)C(=O)O; NMeDha = C=C(NC)C(=O)O"}
{"molecule": "NCCCC[C@H](NC(=O)[C@@H](Cc1cc(Br)c(O)c(Br)c1)NC(=O)N1CCC(N2Cc3ccccc3NC2=O)CC1)C(=O)N1CCN(c2ccncc2)CC1", "note": "[BIBN 4096 BS]", "values": [{"measurement": "disruption of receptor–RAMP interaction", "setting": "CLR–RAMP1", "result": "disrupt the interaction"}]}
{"molecule": "CC(C)(C)c1cc(C(=O)/C(C#N)=N/Nc2cccc(Cl)c2)no1", "note": "[ESI-09]", "values": [{"measurement": "effect of inhibitor on GLP-1-mediated insulin secretion", "setting": "INS-1 832/3 cells [1]", "result": "significantly decreased; also recorded: significantly reduced insulin secretion"}]}
{"molecule": "Nc1ncnc2c1nc(Br)n2C1OC2COP(O)(=S)OC2C1O", "note": "(stereo not shown) [Rp-8-Br-cAMPs]", "values": [{"measurement": "effect of inhibitor on GLP-1-mediated insulin secretion", "setting": "INS-1 832/3 cells [1]", "result": "no effect; also recorded: unaffected"}]}
{"molecule": "C=C1C(=O)NC(C)C(=O)N(C)C(C)C(=O)NC(C(OC(=O)C(NC(C)=O)C(O)C(C)C)C(C)C)C(=O)N(C)C(C(C)OC)C(=O)OC(C)C(NC(C)=O)C(=O)OC(Cc2ccccc2)C(=O)N1C", "note": "(stereo not shown) [YM-254890] (Ac-T[PhLac][NMeDha]A[NMeA][X1][NMeT](Me); ester 1-C; configuration not given here)", "values": [{"measurement": "effect of inhibitor on GLP-1-mediated insulin secretion, RAMP3 vs vector", "setting": "INS-1 832/3 cells [1]; YM-254890 100 nM, PTX 0.2 ng/μl", "result": "decreased insulin secretion significantly only when RAMP3 was overexpressed; also recorded: only reduced insulin secretion in cells overexpressing RAMP3"}]}
{"molecule": "GLP-1 (9–36)", "values": [{"measurement": "(Ca^2+)i mobilization", "setting": "Nluc–GLP-1R [2]", "result": "unable to elicit any (Ca^2+)i mobilization"}, {"measurement": "cAMP production", "setting": "Nluc–GLP-1R [3]", "result": "did not elicit sufficient cAMP production over the concentration range tested"}]}
{"molecule": "Semaglutide", "values": [{"measurement": "protection against neurodegeneration and neuroinflammation", "setting": "[4]", "result": "protect against neurodegeneration and neuroinflammation"}]}
{"molecule": "exendin-4 (from UniProt P26349 48-87) (peptide)", "values": [{"measurement": "Ca^2+ mobilization, HEK293T, + 2xFLAG-RAMP3; pEC50", "setting": "Nluc–GLP-1R [5]", "result": 8.6, "unit": "pEC50"}, {"measurement": "Ca^2+ mobilization, HEK293T, receptor alone; pEC50", "setting": "Nluc–GLP-1R [5]", "result": 6.9, "unit": "pEC50"}, {"measurement": "cAMP accumulation, 8-min stimulation, HEK293T, + 2xFLAG-RAMP3; pEC50", "setting": "Nluc–GLP-1R [5]", "result": 11.3, "unit": "pEC50"}, {"measurement": "cAMP accumulation, 8-min stimulation, HEK293T, + FLAG-RAMP3; pEC50", "setting": "Nluc–GLP-1R [5]", "result": 11.6, "unit": "pEC50"}, {"measurement": "cAMP accumulation, 8-min stimulation, HEK293T, receptor alone; pEC50", "setting": "Nluc–GLP-1R [5]", "result": 11.7, "unit": "pEC50"}, {"measurement": "cAMP accumulation, 30-min stimulation, HEK293T, + 2xFLAG-RAMP3; pEC50", "setting": "Nluc–GLP-1R [5]", "result": 12.4, "unit": "pEC50"}, {"measurement": "cAMP accumulation, 30-min stimulation, HEK293T, + FLAG-RAMP3; pEC50", "setting": "Nluc–GLP-1R [5]", "result": 12.8, "unit": "pEC50"}, {"measurement": "cAMP accumulation, 30-min stimulation, HEK293T, receptor alone; pEC50", "setting": "Nluc–GLP-1R [5]", "result": 13.1, "unit": "pEC50"}]}
{"molecule": "glucagon: agonist of GCGR (cited)", "values": [{"measurement": "effect of RAMP2 on Gαs coupling/response at GCGR", "setting": "GCGR with RAMP2", "result": "increasing Gαs coupling"}]}
{"molecule": "glucose-dependent insulinotropic polypeptide [GIP]", "values": [{"measurement": "effect of RAMP3 siRNA on cAMP accumulation", "setting": "GIPR", "result": "no effect"}, {"measurement": "effect of RAMP3 knockdown on insulin secretion", "setting": "Min6 B1 cells", "result": "unaffected"}, {"measurement": "effect of RAMP1 transfection on insulin secretion", "setting": "INS-1 832/3 cells [6]", "result": "increased insulin secretion"}, {"measurement": "effect of RAMP3 transfection on insulin secretion", "setting": "INS-1 832/3 cells [6]", "result": "increased insulin secretion"}]}
{"molecule": "liraglutide (peptide)", "values": [{"measurement": "internalization (loss of BRET with RIT-Venus), HEK293T, + 2xFLAG-RAMP3; pEC50", "setting": "GLP-1R–Nluc (human)", "result": 7.6, "unit": "pEC50"}, {"measurement": "internalization (loss of BRET with RIT-Venus), HEK293T, + FLAG-RAMP3; pEC50", "setting": "GLP-1R–Nluc (human)", "result": 8.2, "unit": "pEC50"}, {"measurement": "internalization (loss of BRET with RIT-Venus), HEK293T, receptor alone; pEC50", "setting": "GLP-1R–Nluc (human)", "result": 8.5, "unit": "pEC50"}, {"measurement": "β-arrestin1–YFP recruitment (BRET), HEK293T, + 2xFLAG-RAMP3; pEC50", "setting": "GLP-1R–Nluc (human)", "result": 7.5, "unit": "pEC50"}, {"measurement": "β-arrestin1–YFP recruitment (BRET), HEK293T, + FLAG-RAMP3; pEC50", "setting": "GLP-1R–Nluc (human)", "result": 7.1, "unit": "pEC50"}, {"measurement": "β-arrestin1–YFP recruitment (BRET), HEK293T, receptor alone; pEC50", "setting": "GLP-1R–Nluc (human)", "result": 7, "unit": "pEC50"}, {"measurement": "β-arrestin2–YFP recruitment (BRET), HEK293T, + 2xFLAG-RAMP3; pEC50", "setting": "GLP-1R–Nluc (human)", "result": 7.5, "unit": "pEC50"}, {"measurement": "β-arrestin2–YFP recruitment (BRET), HEK293T, + FLAG-RAMP3; pEC50", "setting": "GLP-1R–Nluc (human)", "result": 7.1, "unit": "pEC50"}, {"measurement": "β-arrestin2–YFP recruitment (BRET), HEK293T, receptor alone; pEC50", "setting": "GLP-1R–Nluc (human)", "result": 7.3, "unit": "pEC50"}, {"measurement": "Ca^2+ mobilization, HEK293T, + 2xFLAG-RAMP3; pEC50", "setting": "Nluc–GLP-1R [5]", "result": 7.5, "unit": "pEC50"}, {"measurement": "Ca^2+ mobilization, HEK293T, + FLAG-RAMP3; pEC50", "setting": "Nluc–GLP-1R [5]", "result": 7.4, "unit": "pEC50"}, {"measurement": "Ca^2+ mobilization, HEK293T, receptor alone; pEC50", "setting": "Nluc–GLP-1R [5]", "result": 7.5, "unit": "pEC50"}, {"measurement": "cAMP accumulation, 8-min stimulation, HEK293T, + 2xFLAG-RAMP3; pEC50", "setting": "Nluc–GLP-1R [5]", "result": 9.9, "unit": "pEC50"}, {"measurement": "cAMP accumulation, 8-min stimulation, HEK293T, + FLAG-RAMP3; pEC50", "setting": "Nluc–GLP-1R [5]", "result": 10.3, "unit": "pEC50"}, {"measurement": "cAMP accumulation, 30-min stimulation, HEK293T, + 2xFLAG-RAMP3; pEC50", "setting": "Nluc–GLP-1R [5]", "result": 10.1, "unit": "pEC50"}, {"measurement": "cAMP accumulation, 30-min stimulation, HEK293T, + FLAG-RAMP3; pEC50", "setting": "Nluc–GLP-1R [5]", "result": 10.3, "unit": "pEC50"}, {"measurement": "cAMP accumulation, 30-min stimulation, HEK293T, receptor alone; pEC50", "setting": "Nluc–GLP-1R [5]", "result": 10.4, "unit": "pEC50"}]}
